Test results as given in patent publication US20140087995A1 (published 2014).
Numbered stars: 1 amine (or outer) side, 2 acyl side, 3 side chain; on linkers, the order of the positions; unused ones are H or OH. Bridge positions count the residues as written; N and C are the ends. Side chains are listed from the residue outwards. Ends that are not written are not given here. * marks the point of attachment. C20 diacid = O=C(O)CCCCCCCCCCCCCCCCCCC(=O)*; γGlu = O=C(O)[C@H](CCC(=O)[*:2])N[*:1]

T1: rat amylin receptor (rat calcitonin receptor + rat RAMP 3) (rat, UniProt P32214 25-516; Q9JJ73 23-147)
T1 construct: whole, on cells; Membranes of transiently transfected BHK tk'ts 13 cells (Assay VI); also called rAmylin-R; rat amylin 3(a) receptor
T1 sequence (looked up) 1: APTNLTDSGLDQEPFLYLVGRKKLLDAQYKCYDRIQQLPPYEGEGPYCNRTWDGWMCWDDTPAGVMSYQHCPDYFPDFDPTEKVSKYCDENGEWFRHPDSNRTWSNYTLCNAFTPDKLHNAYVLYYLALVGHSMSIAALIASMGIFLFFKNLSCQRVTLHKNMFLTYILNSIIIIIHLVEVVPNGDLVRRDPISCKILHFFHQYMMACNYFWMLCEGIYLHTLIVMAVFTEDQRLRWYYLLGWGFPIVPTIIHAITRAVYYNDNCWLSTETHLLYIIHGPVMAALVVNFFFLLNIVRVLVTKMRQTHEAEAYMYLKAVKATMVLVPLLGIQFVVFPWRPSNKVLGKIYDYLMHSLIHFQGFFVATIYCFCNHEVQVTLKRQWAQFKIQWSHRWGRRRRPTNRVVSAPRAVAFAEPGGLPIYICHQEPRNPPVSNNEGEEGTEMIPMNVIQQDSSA
T1 sequence (looked up) 2: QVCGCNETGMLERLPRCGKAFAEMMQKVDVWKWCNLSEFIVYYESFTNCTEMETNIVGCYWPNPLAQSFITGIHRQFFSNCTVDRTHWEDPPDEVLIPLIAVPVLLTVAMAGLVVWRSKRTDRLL

T2: rat calcitonin receptor (rat, UniProt P32214 25-516)
T2 construct: whole, on cells; Membranes of transiently transfected BHK tk'ts 13 cells (Assay VIII); also called rCTR
T2 sequence (looked up): T1 sequence (looked up) 1

T3: human calcitonin receptor (human, UniProt P30988 25-474)
T3 construct: whole, on cells; Membranes of a stably transfected BHK cell line (Assay VII); also called hCTR; hCT
T3 sequence (looked up): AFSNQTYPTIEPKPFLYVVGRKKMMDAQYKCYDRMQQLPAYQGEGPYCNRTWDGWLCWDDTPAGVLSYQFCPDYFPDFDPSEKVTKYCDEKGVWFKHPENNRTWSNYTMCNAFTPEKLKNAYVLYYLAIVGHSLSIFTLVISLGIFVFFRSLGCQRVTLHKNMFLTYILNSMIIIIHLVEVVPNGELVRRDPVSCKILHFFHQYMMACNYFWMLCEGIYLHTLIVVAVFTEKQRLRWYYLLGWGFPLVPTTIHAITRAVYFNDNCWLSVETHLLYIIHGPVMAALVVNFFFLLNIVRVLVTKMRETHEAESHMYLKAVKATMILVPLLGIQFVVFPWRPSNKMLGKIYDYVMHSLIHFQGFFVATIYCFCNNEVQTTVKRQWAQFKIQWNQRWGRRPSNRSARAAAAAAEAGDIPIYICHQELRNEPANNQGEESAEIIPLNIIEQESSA

B1: N^-1-[(4S)-4-carboxy-4-(19-carboxynonadecanoylamino)butanoyl]-Gly[Arg1,His14,Arg17,Pro21,Pro27,His34]-h-amylin (peptide)
peptide: {C20 diacid-γGlu}-GRCNTATCATQRLAHFLRHSSPNFGAIPSSTNVGHNTY-NH2
modifications: disulfide 3-8
SMILES: CC[C@H](C)[C@H](NC(=O)[C@H](C)NC(=O)CNC(=O)[C@H](Cc1ccccc1)NC(=O)[C@H](CC(N)=O)NC(=O)[C@@H]1CCCN1C(=O)[C@H](CO)NC(=O)[C@H](CO)NC(=O)[C@H](Cc1c[nH]cn1)NC(=O)[C@H](CCCNC(=N)N)NC(=O)[C@H](CC(C)C)NC(=O)[C@H](Cc1ccccc1)NC(=O)[C@H](Cc1c[nH]cn1)NC(=O)[C@H](C)NC(=O)[C@H](CC(C)C)NC(=O)[C@H](CCCNC(=N)N)NC(=O)[C@H](CCC(N)=O)NC(=O)[C@@H](NC(=O)[C@H](C)NC(=O)[C@@H]1CSSC[C@H](NC(=O)[C@H](CCCNC(=N)N)NC(=O)CNC(=O)CC[C@H](NC(=O)CCCCCCCCCCCCCCCCCCC(=O)O)C(=O)O)C(=O)N[C@@H](CC(N)=O)C(=O)N[C@@H]([C@@H](C)O)C(=O)N[C@@H](C)C(=O)N[C@@H]([C@@H](C)O)C(=O)N1)[C@@H](C)O)C(=O)N1CCC[C@H]1C(=O)N[C@@H](CO)C(=O)N[C@@H](CO)C(=O)N[C@H](C(=O)N[C@@H](CC(N)=O)C(=O)N[C@H](C(=O)NCC(=O)N[C@@H](Cc1c[nH]cn1)C(=O)N[C@@H](CC(N)=O)C(=O)N[C@H](C(=O)N[C@@H](Cc1ccc(O)cc1)C(N)=O)[C@@H](C)O)C(C)C)[C@@H](C)O
notes: also called compound 100
B2: N^-1-[(4S)-4-carboxy-4-(19-carboxynonadecanoylamino)butanoyl]-Gly[Arg1,Ala14,Arg17,Pro21,Pro27,His34]-h-amylin (peptide)
peptide: {C20 diacid-γGlu}-GRCNTATCATQRLAAFLRHSSPNFGAIPSSTNVGHNTY-NH2
modifications: disulfide 3-8
SMILES: CC[C@H](C)[C@H](NC(=O)[C@H](C)NC(=O)CNC(=O)[C@H](Cc1ccccc1)NC(=O)[C@H](CC(N)=O)NC(=O)[C@@H]1CCCN1C(=O)[C@H](CO)NC(=O)[C@H](CO)NC(=O)[C@H](Cc1c[nH]cn1)NC(=O)[C@H](CCCNC(=N)N)NC(=O)[C@H](CC(C)C)NC(=O)[C@H](Cc1ccccc1)NC(=O)[C@H](C)NC(=O)[C@H](C)NC(=O)[C@H](CC(C)C)NC(=O)[C@H](CCCNC(=N)N)NC(=O)[C@H](CCC(N)=O)NC(=O)[C@@H](NC(=O)[C@H](C)NC(=O)[C@@H]1CSSC[C@H](NC(=O)[C@H](CCCNC(=N)N)NC(=O)CNC(=O)CC[C@H](NC(=O)CCCCCCCCCCCCCCCCCCC(=O)O)C(=O)O)C(=O)N[C@@H](CC(N)=O)C(=O)N[C@@H]([C@@H](C)O)C(=O)N[C@@H](C)C(=O)N[C@@H]([C@@H](C)O)C(=O)N1)[C@@H](C)O)C(=O)N1CCC[C@H]1C(=O)N[C@@H](CO)C(=O)N[C@@H](CO)C(=O)N[C@H](C(=O)N[C@@H](CC(N)=O)C(=O)N[C@H](C(=O)NCC(=O)N[C@@H](Cc1c[nH]cn1)C(=O)N[C@@H](CC(N)=O)C(=O)N[C@H](C(=O)N[C@@H](Cc1ccc(O)cc1)C(N)=O)[C@@H](C)O)C(C)C)[C@@H](C)O
B3: N{-1}-[(4S)-4-carboxy-4-(19-carboxynonadecanoylamino)butanoyl]-Gly[Arg1,His14,Arg17,Pro21,Pro27]-h-amylin (peptide)
peptide: {C20 diacid-γGlu}-GRCNTATCATQRLAHFLRHSSPNFGAIPSSTNVGSNTY-NH2
modifications: disulfide 3-8
SMILES: CC[C@H](C)[C@H](NC(=O)[C@H](C)NC(=O)CNC(=O)[C@H](Cc1ccccc1)NC(=O)[C@H](CC(N)=O)NC(=O)[C@@H]1CCCN1C(=O)[C@H](CO)NC(=O)[C@H](CO)NC(=O)[C@H](Cc1c[nH]cn1)NC(=O)[C@H](CCCNC(=N)N)NC(=O)[C@H](CC(C)C)NC(=O)[C@H](Cc1ccccc1)NC(=O)[C@H](Cc1c[nH]cn1)NC(=O)[C@H](C)NC(=O)[C@H](CC(C)C)NC(=O)[C@H](CCCNC(=N)N)NC(=O)[C@H](CCC(N)=O)NC(=O)[C@@H](NC(=O)[C@H](C)NC(=O)[C@@H]1CSSC[C@H](NC(=O)[C@H](CCCNC(=N)N)NC(=O)CNC(=O)CC[C@H](NC(=O)CCCCCCCCCCCCCCCCCCC(=O)O)C(=O)O)C(=O)N[C@@H](CC(N)=O)C(=O)N[C@@H]([C@@H](C)O)C(=O)N[C@@H](C)C(=O)N[C@@H]([C@@H](C)O)C(=O)N1)[C@@H](C)O)C(=O)N1CCC[C@H]1C(=O)N[C@@H](CO)C(=O)N[C@@H](CO)C(=O)N[C@H](C(=O)N[C@@H](CC(N)=O)C(=O)N[C@H](C(=O)NCC(=O)N[C@@H](CO)C(=O)N[C@@H](CC(N)=O)C(=O)N[C@H](C(=O)N[C@@H](Cc1ccc(O)cc1)C(N)=O)[C@@H](C)O)C(C)C)[C@@H](C)O
notes: also called compound 99
B4: N^-1-[(4S)-4-carboxy-4-(19-carboxynonadecanoylamino)butanoyl]-Gly[Arg1,His14,Arg17,Pro21,Pro27,Pro34]-h-amylin (peptide)
peptide: {C20 diacid-γGlu}-GRCNTATCATQRLAHFLRHSSPNFGAIPSSTNVGPNTY-NH2
modifications: disulfide 3-8
SMILES: CC[C@H](C)[C@H](NC(=O)[C@H](C)NC(=O)CNC(=O)[C@H](Cc1ccccc1)NC(=O)[C@H](CC(N)=O)NC(=O)[C@@H]1CCCN1C(=O)[C@H](CO)NC(=O)[C@H](CO)NC(=O)[C@H](Cc1c[nH]cn1)NC(=O)[C@H](CCCNC(=N)N)NC(=O)[C@H](CC(C)C)NC(=O)[C@H](Cc1ccccc1)NC(=O)[C@H](Cc1c[nH]cn1)NC(=O)[C@H](C)NC(=O)[C@H](CC(C)C)NC(=O)[C@H](CCCNC(=N)N)NC(=O)[C@H](CCC(N)=O)NC(=O)[C@@H](NC(=O)[C@H](C)NC(=O)[C@@H]1CSSC[C@H](NC(=O)[C@H](CCCNC(=N)N)NC(=O)CNC(=O)CC[C@H](NC(=O)CCCCCCCCCCCCCCCCCCC(=O)O)C(=O)O)C(=O)N[C@@H](CC(N)=O)C(=O)N[C@@H]([C@@H](C)O)C(=O)N[C@@H](C)C(=O)N[C@@H]([C@@H](C)O)C(=O)N1)[C@@H](C)O)C(=O)N1CCC[C@H]1C(=O)N[C@@H](CO)C(=O)N[C@@H](CO)C(=O)N[C@H](C(=O)N[C@@H](CC(N)=O)C(=O)N[C@H](C(=O)NCC(=O)N1CCC[C@H]1C(=O)N[C@@H](CC(N)=O)C(=O)N[C@H](C(=O)N[C@@H](Cc1ccc(O)cc1)C(N)=O)[C@@H](C)O)C(C)C)[C@@H](C)O
B5: N^ε1-[(4S)-4-carboxy-4-[[(4S)-4-carboxy-4-(19-carboxynonadecanoylamino)butanoyl]amino]butanoyl]-[Ser14,Arg17,Pro21,Pro27,Pro34,Glu35]-h-amylin (peptide)
peptide: K([γGlu-γGlu-C20 diacid])CNTATCATQRLASFLRHSSPNFGAIPSSTNVGPETY-NH2
modifications: disulfide 2-7; N-terminus assumed
SMILES: CC[C@H](C)[C@H](NC(=O)[C@H](C)NC(=O)CNC(=O)[C@H](Cc1ccccc1)NC(=O)[C@H](CC(N)=O)NC(=O)[C@@H]1CCCN1C(=O)[C@H](CO)NC(=O)[C@H](CO)NC(=O)[C@H](Cc1c[nH]cn1)NC(=O)[C@H](CCCNC(=N)N)NC(=O)[C@H](CC(C)C)NC(=O)[C@H](Cc1ccccc1)NC(=O)[C@H](CO)NC(=O)[C@H](C)NC(=O)[C@H](CC(C)C)NC(=O)[C@H](CCCNC(=N)N)NC(=O)[C@H](CCC(N)=O)NC(=O)[C@@H](NC(=O)[C@H](C)NC(=O)[C@@H]1CSSC[C@H](NC(=O)[C@@H](N)CCCCNC(=O)CC[C@H](NC(=O)CC[C@H](NC(=O)CCCCCCCCCCCCCCCCCCC(=O)O)C(=O)O)C(=O)O)C(=O)N[C@@H](CC(N)=O)C(=O)N[C@@H]([C@@H](C)O)C(=O)N[C@@H](C)C(=O)N[C@@H]([C@@H](C)O)C(=O)N1)[C@@H](C)O)C(=O)N1CCC[C@H]1C(=O)N[C@@H](CO)C(=O)N[C@@H](CO)C(=O)N[C@H](C(=O)N[C@@H](CC(N)=O)C(=O)N[C@H](C(=O)NCC(=O)N1CCC[C@H]1C(=O)N[C@@H](CCC(=O)O)C(=O)N[C@H](C(=O)N[C@@H](Cc1ccc(O)cc1)C(N)=O)[C@@H](C)O)C(C)C)[C@@H](C)O
notes: also called compound 120

target: T1, rat amylin receptor (rat calcitonin …); experiment: SPA competition with 125I-rat amylin, membranes of BHK cells with rat calcitonin receptor + rat RAMP3 (Assay VI)

IC50 [nM]	Binder
11.2	B1
0.436	{C20 diacid-γGlu}-GRCNTATCATQRLAAFLRHSSPNFGAIPSSTNVGPNTY-NH2 (disulfide 3-8)
8.07	B2
2.7	B3
0.674	B4
0.161	B5

target: T2, rat calcitonin receptor; experiment: SPA competition with 125I-calcitonin, membranes of BHK cells with rat calcitonin receptor (Assay VIII)

IC50 [nM]	Binder
311	B1
56.3	{C20 diacid-γGlu}-GRCNTATCATQRLAAFLRHSSPNFGAIPSSTNVGPNTY-NH2 (disulfide 3-8)
492	B2
216	B3
65.9	B4
140	B5

target: T3, human calcitonin receptor; experiment: ratio IC50 human calcitonin receptor / IC50 human amylin receptor (reference)
Procedure, shortened: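 IC₅₀ values were derived by one-site competition analysis of SPA counts. Cell membranes (35 ng/μL) with SPA beads were incubated with test compounds for 120 min at 25° C in Hepes buffer, pH 7.4, containing CaCl2, MgCl₂, OA and Tween20.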

Ratio hCT/hAmylin binding	Binder
65.3	B1
26.5	{C20 diacid-γGlu}-GRCNTATCATQRLAAFLRHSSPNFGAIPSSTNVGPNTY-NH2 (disulfide 3-8)
68.6	B2
100	B3
36.2	B4
45.3	B5

target: T2, rat calcitonin receptor; experiment: ratio IC50 rat calcitonin receptor / IC50 rat amylin receptor (reference)

Ratio rCT/rAmylin binding	Binder
27.7	B1
129	{C20 diacid-γGlu}-GRCNTATCATQRLAAFLRHSSPNFGAIPSSTNVGPNTY-NH2 (disulfide 3-8)
60.9	B2
79.8	B3
97.7	B4
868	B5
